Results reported in the supplement of paper PMC7877785.
± gives the uncertainty stated by the source.

Assay: self-splicing fitness, log relative to wild type (ln ratio); higher = more splicing; Tetrahymena group I intron in knt gene, E. coli kanamycin selection, DiMSum; sequences stand for … in CUCUCU…GGAGGGAAAAGUUAUCAGGCAUGCACCUGGUAGCUAGUCUUUAAACCAAUAGAUUGCAUCGGUUUAAAAGGCAAGACCGUCAAAUUGCGGGAAAGGGGUCAACAGCCGUUCAGUACCAAGUCUCAGGGGAAACUUUGAGAUGGCCUUGCAAAGGGUAUGGUAAUAAGCUGACGGACAUGGUCCUAACCACGCAGCCAAGUCCUAAGUCAACAGAUCUUCUGUUGAUAUGGAUGCAGUUCACAGACUAAAUGUCGGUCGGGGAAGAUGUAUUCUUCUCAUAAGAUAUAGUCGGACCUCUCCUUAAUGGGAGCUAGCGGAUGAAGUGAUGCAACACUGGAGCCGCUGGGAACUAAUUUGUAUGCGAAAGUAUAUUGAUUAGUUUUGGAGUACUCGUGGUCG
Summary of the method: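 Six replicate transformations of E. coli BL21(DE3) with a pET-22b(+) library were grown overnight at 37°C or 30°C. The library randomised all eight P1ex-region intron nucleotides, the intron lying in the knt kanamycin-resistance gene, and plates were LB agar with or without 25 μg/mL kanamycin plus 100 μg/mL carbenicillin, 50 μM IPTG and 0.2% rhamnose. Pooled colonies were amplicon-sequenced on an Illumina HiSeq 2500, and fitness is the DiMSum error-weighted combination of wild-type-normalised replicate fold changes, kanamycin versus none.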

Row | Sequence | self-splicing fitness (ln) (30 °C) | self-splicing fitness (ln) (37 °C)
1 | AUCUAGCAAUAUUACGACAG | -3.33 ± 0.3 | -2.68 ± 0.31
2 | AUGAAGCAAUAUUACGUCCG | -0.499 ± 0.062 | 0.309 ± 0.086
3 | CCGGAGCAAUAUUACGAUAG | -0.959 ± 0.07 | -0.152 ± 0.081
4 | UCCAAGCAAUAUUACGAGGG | -3.08 ± 0.2 | -2.31 ± 0.31
5 | GACCAGCAAUAUUACGUUCC | -2.31 ± 0.26 | -1.76 ± 0.28
6 | GUGUAGCAAUAUUACGUCGA | -1.11 ± 0.14 | -0.586 ± 0.12
7 | CGUUAGCAAUAUUACGAUAC | – | -2.64 ± 0.44
8 | UGAAAGCAAUAUUACGUUAU | -3.73 ± 0.19 | -1.76 ± 0.11
9 | UCGAAGCAAUAUUACGAUGA | -0.316 ± 0.068 | 0.368 ± 0.074
10 | GAGAAGCAAUAUUACGCUGG | -2.87 ± 0.41 | -1.64 ± 0.41
11 | AGUAAGCAAUAUUACGGAGA | -3.47 ± 0.32 | -2.44 ± 0.42
12 | GCCUAGCAAUAUUACGCUCU | -0.984 ± 0.06 | 0.106 ± 0.083
13 | ACUAAGCAAUAUUACGUUGC | -3.69 ± 0.27 | -2.77 ± 0.22
14 | CGUGAGCAAUAUUACGAUCA | -2.06 ± 0.14 | -0.309 ± 0.12
15 | GGCCAGCAAUAUUACGGCUA | -0.439 ± 0.097 | -0.0906 ± 0.1
16 | UGAGAGCAAUAUUACGCCGU | -3.58 ± 0.47 | –
17 | UUUAAGCAAUAUUACGAGCC | -1.83 ± 0.36 | –
18 | GGCUAGCAAUAUUACGGCGA | -0.177 ± 0.13 | 0.0471 ± 0.14
19 | CACCAGCAAUAUUACGUAAG | 0.114 ± 0.041 | 0.336 ± 0.061
20 | UCUCAGCAAUAUUACGGUGG | -2.24 ± 0.14 | -2.31 ± 0.18
21 | CACCAGCAAUAUUACGAGGU | -3.22 ± 0.12 | -2.53 ± 0.16
22 | UACGAGCAAUAUUACGACGC | -3 ± 0.27 | -2.09 ± 0.35
23 | CCAAAGCAAUAUUACGGCAC | -4.07 ± 0.24 | -2.89 ± 0.21
24 | CGCGAGCAAUAUUACGUAUA | -3.38 ± 0.27 | -1.24 ± 0.24
25 | GGGCAGCAAUAUUACGACGU | -0.265 ± 0.1 | 0.553 ± 0.12

Row | Sequence | self-splicing fitness (ln) (30 °C) | self-splicing fitness (ln) (37 °C)
26 | UAUGAGCAAUAUUACGGGGA | -2.94 ± 0.39 | –
27 | AUGAAGCAAUAUUACGGAGU | -1.4 ± 0.089 | -0.447 ± 0.094
28 | CAGGAGCAAUAUUACGGAGA | -2.81 ± 0.28 | -2.34 ± 0.37
29 | CGCUAGCAAUAUUACGAGCC | -1.23 ± 0.2 | -0.554 ± 0.17
30 | AGCAAGCAAUAUUACGGAGU | -2.98 ± 0.13 | -1.6 ± 0.12
31 | UUUAAGCAAUAUUACGUAUG | -1.44 ± 0.13 | -0.482 ± 0.16
32 | CAGCAGCAAUAUUACGAAAG | -0.597 ± 0.09 | -0.18 ± 0.12
33 | UUCUAGCAAUAUUACGUAUC | -3.32 ± 0.27 | -2.05 ± 0.22
34 | CGACAGCAAUAUUACGUCAA | -1.99 ± 0.14 | -1.21 ± 0.12
35 | CGUGAGCAAUAUUACGUAAC | -3.13 ± 0.39 | -2.78 ± 0.43
36 | CUUUAGCAAUAUUACGGAAA | – | -2.01 ± 0.27
37 | GCGUAGCAAUAUUACGGGAC | -2.1 ± 0.15 | -2.17 ± 0.2
38 | GUACAGCAAUAUUACGACUG | -1.83 ± 0.13 | -1.33 ± 0.14
39 | AGUUAGCAAUAUUACGCAGU | -2.38 ± 0.23 | -2.62 ± 0.31
40 | GUGCAGCAAUAUUACGGUAG | -1.05 ± 0.057 | -0.428 ± 0.074
41 | UACCAGCAAUAUUACGGUGG | -3.17 ± 0.11 | -1.87 ± 0.087
42 | UCAGAGCAAUAUUACGGGUG | -3.2 ± 0.2 | -1.46 ± 0.14
43 | CAUUAGCAAUAUUACGGGAG | -1.46 ± 0.12 | -1.09 ± 0.11
44 | UUGCAGCAAUAUUACGCCAU | -2.8 ± 0.11 | -2.49 ± 0.16
45 | AAUCAGCAAUAUUACGGACA | -0.225 ± 0.077 | -0.145 ± 0.091
46 | UAGUAGCAAUAUUACGGGGC | -3.84 ± 0.39 | -2.68 ± 0.27
47 | UAUUAGCAAUAUUACGAUUU | -1.76 ± 0.14 | -0.438 ± 0.12
48 | CAGGAGCAAUAUUACGACUG | – | -2.83 ± 0.38
49 | UUGAAGCAAUAUUACGUUAC | – | -2.51 ± 0.23
50 | GUGGAGCAAUAUUACGCGUC | -2.82 ± 0.35 | -1.76 ± 0.47

Row | Sequence | self-splicing fitness (ln) (30 °C) | self-splicing fitness (ln) (37 °C)
51 | AAUUAGCAAUAUUACGUGAC | -2.05 ± 0.21 | -2.73 ± 0.23
52 | GCCAAGCAAUAUUACGGCCU | -3.86 ± 0.32 | -1.67 ± 0.19
53 | AGAGAGCAAUAUUACGUAGU | -3.49 ± 0.3 | -2.47 ± 0.26
54 | CCGCAGCAAUAUUACGCCAC | -3.33 ± 0.29 | -1.81 ± 0.28
55 | CGCGAGCAAUAUUACGGGAC | -3.07 ± 0.25 | -2.43 ± 0.45
56 | GUAUAGCAAUAUUACGGUUC | -1.22 ± 0.1 | -0.0871 ± 0.12
57 | GCCGAGCAAUAUUACGGCAG | -3.94 ± 0.29 | -2.61 ± 0.33
58 | ACGCAGCAAUAUUACGGUCA | -1.15 ± 0.069 | -0.339 ± 0.069
59 | AUCAAGCAAUAUUACGGUCA | -1.76 ± 0.14 | -1.28 ± 0.13
60 | UCUAAGCAAUAUUACGCAGU | -1.86 ± 0.16 | -1.24 ± 0.15
61 | GACAAGCAAUAUUACGGACU | -1.17 ± 0.075 | 0.137 ± 0.087
62 | UUCAAGCAAUAUUACGACAA | 0.0996 ± 0.083 | -0.304 ± 0.085
63 | ACAGAGCAAUAUUACGUGUC | -3.27 ± 0.22 | -2.94 ± 0.38
64 | UCAGAGCAAUAUUACGCGCA | -1.19 ± 0.2 | -1.69 ± 0.29
65 | UGCCAGCAAUAUUACGUGUA | -1.26 ± 0.058 | -0.551 ± 0.059
66 | AGCUAGCAAUAUUACGACCU | 0.703 ± 0.17 | -0.166 ± 0.18
67 | CAGCAGCAAUAUUACGUUUC | -3.76 ± 0.17 | -2.53 ± 0.2
68 | AGAUAGCAAUAUUACGGCCU | -0.604 ± 0.11 | 0.606 ± 0.14
69 | UCGGAGCAAUAUUACGUGCA | -0.902 ± 0.17 | -1.03 ± 0.25
70 | GUGCAGCAAUAUUACGGCUC | -0.0701 ± 0.085 | -0.129 ± 0.1
71 | CUUAAGCAAUAUUACGCGAA | -2.82 ± 0.24 | -2.82 ± 0.34
72 | UUAGAGCAAUAUUACGACUG | -1.13 ± 0.096 | 0.345 ± 0.14
73 | CGUCAGCAAUAUUACGUAUU | -2.83 ± 0.13 | -1.84 ± 0.14
74 | GAUGAGCAAUAUUACGUCAG | -3.78 ± 0.32 | -2.31 ± 0.26
75 | GAUAAGCAAUAUUACGCCUU | -0.931 ± 0.1 | -0.199 ± 0.14

Row | Sequence | self-splicing fitness (ln) (30 °C) | self-splicing fitness (ln) (37 °C)
76 | AUACAGCAAUAUUACGGACA | -1.55 ± 0.13 | -0.413 ± 0.13
77 | GAGGAGCAAUAUUACGGGGG | -3.09 ± 0.27 | -3.13 ± 0.47
78 | AAGAAGCAAUAUUACGACUG | -0.231 ± 0.089 | 0.323 ± 0.16
79 | AAGCAGCAAUAUUACGAGAC | – | -0.225 ± 0.15
80 | UCGCAGCAAUAUUACGGGAA | -2.44 ± 0.15 | -1.49 ± 0.13
81 | UAGAAGCAAUAUUACGGCUA | -0.274 ± 0.12 | -0.13 ± 0.16
82 | AUCCAGCAAUAUUACGGGAU | -3.75 ± 0.28 | -2.9 ± 0.36
83 | AUGAAGCAAUAUUACGUUAG | -1.97 ± 0.08 | -0.415 ± 0.11
84 | GCACAGCAAUAUUACGUCUU | -0.723 ± 0.053 | 0.267 ± 0.064
85 | AUGAAGCAAUAUUACGGCAC | -0.455 ± 0.086 | 0.222 ± 0.14
86 | UUGCAGCAAUAUUACGUACC | -3.54 ± 0.47 | -2.55 ± 0.33
87 | GAUCAGCAAUAUUACGAGCG | -1.37 ± 0.08 | -0.0351 ± 0.097
88 | GAUAAGCAAUAUUACGAUUU | -0.385 ± 0.083 | 1.36 ± 0.12
89 | AGGAAGCAAUAUUACGGGGA | -2.97 ± 0.2 | -2.38 ± 0.16
90 | CGCAAGCAAUAUUACGCUCC | -2.06 ± 0.27 | -1.11 ± 0.38
91 | CAUGAGCAAUAUUACGGCAG | -0.481 ± 0.086 | -0.96 ± 0.14
92 | GCUAAGCAAUAUUACGUGAC | -2.24 ± 0.2 | -0.851 ± 0.21
93 | CUAGAGCAAUAUUACGUCGU | -3.73 ± 0.42 | –
94 | CCAGAGCAAUAUUACGAGAC | -4.31 ± 0.46 | -2.66 ± 0.3
95 | CUCAAGCAAUAUUACGUCUG | -4.24 ± 0.28 | -1.36 ± 0.17
96 | UAGUAGCAAUAUUACGUUUA | -1.48 ± 0.16 | -1.22 ± 0.14
97 | AUUAAGCAAUAUUACGACUC | 0.675 ± 0.23 | -0.203 ± 0.36
98 | CCAGAGCAAUAUUACGCCUU | -3.57 ± 0.25 | -2.37 ± 0.25
